These results are taken from IntAct's records for PubMed 31515488.

B1: Kelch-like protein 3 (Homo sapiens), Q9UH77 (parent)
chain: MEGESVKLSSQTLIQAGDDEKNQRTITVNPAHMGKAFKVMNELRSKQLLCDVMIVAEDVEIEAHRVVLAACSPYFCAMFTGDMSESKAKKIEIKDVDGQTLSKLIDYIYTAEIEVTEENVQVLLPAASLLQLMDVRQNCCDFLQSQLHPTNCLGIRAFADVHTCTDLLQQANAYAEQHFPEVMLGEEFLSLSLDQVCSLISSDKLTVSSEEKVFEAVISWINYEKETRLEHMAKLMEHVRLPLLPRDYLVQTVEEEALIKNNNTCKDFLIEAMKYHLLPLDQRLLIKNPRTKPRTPVSLPKVMIVVGGQAPKAIRSVECYDFEEDRWDQIAELPSRRCRAGVVFMAGHVYAVGGFNGSLRVRTVDVYDGVKDQWTSIASMQERRSTLGAAVLNDLLYAVGGFDGSTGLASVEAYSYKTNEWFFVAPMNTRRSSVGVGVVEGKLYAVGGYDGASRQCLSTVEQYNPATNEWIYVADMSTRRSGAGVGVLSGQLYATGGHDGPLVRKSVEVYDPGTNTWKQVADMNMCRRNAGVCAVNGLLYVVGGDDGSCNLASVEYYNPVTDKWTLLPTNMSTGRSYAGVAVIHKSL
B2: MAP kinase-activated protein kinase 3 (Homo sapiens), Q16644 (parent)
chain: MDGETAEEQGGPVPPPVAPGGPGLGGAPGGRREPKKYAVTDDYQLSKQVLGLGVNGKVLECFHRRTGQKCALKLLYDSPKARQEVDHHWQASGGPHIVCILDVYENMHHGKRCLLIIMECMEGGELFSRIQERGDQAFTEREAAEIMRDIGTAIQFLHSHNIAHRDVKPENLLYTSKEKDAVLKLTDFGFAKETTQNALQTPCYTPYYVAPEVLGPEKYDKSCDMWSLGVIMYILLCGFPPFYSNTGQAISPGMKRRIRLGQYGFPNPEWSEVSEDAKQLIRLLLKTDPTERLTITQFMNHPWINQSMVVPQTPLHTARVLQEDKDHWDEVKEEMTSALATMRVDYDQVKIKDLKTSNNRLLNKRRKKQAGSSSASQGCNNQ
B3: Cysteine-rich secretory protein 2 (Homo sapiens), P16562 (parent)
chain: MALLPVLFLVTVLLPSLPAEGKDPAFTALLTTQLQVQREIVNKHNELRKAVSPPASNMLKMEWSREVTTNAQRWANKCTLQHSDPEDRKTSTRCGENLYMSSDPTSWSSAIQSWYDEILDFVYGVGPKSPNAVVGHYTQLVWYSTYQVGCGIAYCPNQDSLKYYYVCQYCPAGNNMNRKNTPYQQGTPCAGCPDDCDKGLCTNSCQYQDLLSNCDSLKNTAGCEHELLKEKCKATCLCENKIY
partner: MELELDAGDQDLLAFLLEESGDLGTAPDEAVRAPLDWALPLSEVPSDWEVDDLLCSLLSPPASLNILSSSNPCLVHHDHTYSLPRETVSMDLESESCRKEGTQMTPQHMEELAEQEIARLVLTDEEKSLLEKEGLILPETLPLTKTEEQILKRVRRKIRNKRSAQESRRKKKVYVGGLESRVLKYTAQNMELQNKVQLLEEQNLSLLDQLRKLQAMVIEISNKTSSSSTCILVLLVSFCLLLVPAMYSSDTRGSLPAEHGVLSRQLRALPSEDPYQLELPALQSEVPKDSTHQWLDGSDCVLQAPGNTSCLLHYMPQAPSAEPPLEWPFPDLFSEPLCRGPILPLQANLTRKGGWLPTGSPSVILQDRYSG
B4: Protein FAM9B (Homo sapiens), Q8IZU0 (parent)
chain: MAAWGKKHAGKDPVRDECEERNRFTETREEDVTDEHGEREPFAETDEHTGANTKKPEDTAEDLTAKRKRMKMDKTCSKTKNKSKHALRKKQLKRQKRDYIHSLKLLNVLEEYITDEQKEEEEEEGEEEELIRIFQEQQKKWQQYRSVRRERLKEMKLLRDQFVKALEDFEDLCDRVFSDEDSELDN
partner: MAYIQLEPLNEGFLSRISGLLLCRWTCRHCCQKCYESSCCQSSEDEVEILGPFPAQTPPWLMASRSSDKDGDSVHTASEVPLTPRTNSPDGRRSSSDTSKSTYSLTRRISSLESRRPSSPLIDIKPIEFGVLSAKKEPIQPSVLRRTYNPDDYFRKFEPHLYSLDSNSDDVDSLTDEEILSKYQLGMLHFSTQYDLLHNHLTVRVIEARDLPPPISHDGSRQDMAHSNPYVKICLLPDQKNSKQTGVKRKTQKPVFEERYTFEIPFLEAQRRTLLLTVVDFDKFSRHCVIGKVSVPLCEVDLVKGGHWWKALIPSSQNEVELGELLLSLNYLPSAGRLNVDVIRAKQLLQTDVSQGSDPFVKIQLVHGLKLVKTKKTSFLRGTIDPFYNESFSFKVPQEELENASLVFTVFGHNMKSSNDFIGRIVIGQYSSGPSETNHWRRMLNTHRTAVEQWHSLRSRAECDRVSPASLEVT
B5: E3 ubiquitin-protein ligase TRIM17 (Homo sapiens), Q9Y577 (parent)
chain: MEAVELARKLQEEATCSICLDYFTDPVMTTCGHNFCRACIQLSWEKARGKKGRRKRKGSFPCPECREMSPQRNLLPNRLLTKVAEMAQQHPGLQKQDLCQEHHEPLKLFCQKDQSPICVVCRESREHRLHRVLPAEEAVQGYKLKLEEDMEYLREQITRTGNLQAREEQSLAEWQGKVKERRERIVLEFEKMNLYLVEEEQRLLQALETEEEETASRLRESVACLDRQGHSLELLLLQLEERSTQGPLQMLQDMKEPLSRKNNVSVQCPEVAPPTRPRTVCRVPGQIEVLRGFLEDVVPDATSAYPYLLLYESRQRRYLGSSPEGSGFCSKDRFVAYPCAVGQTAFSSGRHYWEVGMNITGDALWALGVCRDNVSRKDRVPKCPENGFWVVQLSKGTKYLSTFSALTPVMLMEPPSHMGIFLDFEAGEVSFYSVSDGSHLHTYSQATFPGPLQPFFCLGAPKSGQMVISTVTMWVKG
partner: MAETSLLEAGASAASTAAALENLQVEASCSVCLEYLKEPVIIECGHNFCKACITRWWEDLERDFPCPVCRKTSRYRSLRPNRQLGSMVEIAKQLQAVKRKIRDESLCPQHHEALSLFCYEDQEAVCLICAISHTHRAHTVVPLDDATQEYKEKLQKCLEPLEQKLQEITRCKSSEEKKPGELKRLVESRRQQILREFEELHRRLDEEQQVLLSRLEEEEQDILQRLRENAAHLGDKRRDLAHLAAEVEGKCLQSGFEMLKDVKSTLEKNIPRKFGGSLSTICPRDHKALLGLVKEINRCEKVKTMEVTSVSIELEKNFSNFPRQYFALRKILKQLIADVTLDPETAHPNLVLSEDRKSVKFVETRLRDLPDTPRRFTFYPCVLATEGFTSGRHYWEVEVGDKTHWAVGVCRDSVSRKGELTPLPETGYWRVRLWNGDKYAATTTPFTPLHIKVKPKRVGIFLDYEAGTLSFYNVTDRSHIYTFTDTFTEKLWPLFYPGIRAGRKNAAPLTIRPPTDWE

In one experiment the parent is B1. The conditions noted are these: with cul3_human CUL3, Q13618.
Regarding C164F, the “effect of a mutation on the interaction” value is recorded as “disrupting interaction strength”.

Variants of B2 are the subject of another experiment. The conditions noted are these: with mk14_human MAPK14, Q16539.
Sequence of mk14_human MAPK14, Q16539 (Q16539 whole entry): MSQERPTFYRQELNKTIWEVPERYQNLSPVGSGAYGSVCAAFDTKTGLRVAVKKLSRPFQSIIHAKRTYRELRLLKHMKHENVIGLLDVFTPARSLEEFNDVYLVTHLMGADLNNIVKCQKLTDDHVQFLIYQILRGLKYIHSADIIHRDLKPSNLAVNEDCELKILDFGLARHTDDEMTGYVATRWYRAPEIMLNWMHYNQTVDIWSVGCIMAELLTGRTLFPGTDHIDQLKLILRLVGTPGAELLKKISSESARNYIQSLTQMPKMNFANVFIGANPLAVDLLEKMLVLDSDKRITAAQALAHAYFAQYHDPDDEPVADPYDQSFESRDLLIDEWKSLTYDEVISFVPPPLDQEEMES
Consider E105A, for which the “effect of a mutation on the interaction” value was “with no effect”.

In the next experiment the parent is B3. The conditions noted are these: with creb3_human CREB3, O43889.
Regarding C196R, the “effect of a mutation on the interaction” value is “with no effect”.

Variants of B4 are the subject of another experiment. The conditions noted are these: with syt17_human SYT17, Q9BSW7.
R23H: the “effect of a mutation on the interaction” value is “with no effect”.

The next experiment covers variants of B5. The conditions noted are these: with tri39_human TRIM39, Q9HCM9.
As to E173K, the “effect of a mutation on the interaction” value is given as “with no effect”.

As for T30A, the “effect of a mutation on the interaction” value is “disrupting interaction strength”.
